From patent US20250270331A1 (MERUS N V, published 2025)
Changes are numbered by the printed parent chain. Values belong to the binder of their own block, whether it stands above or below them.

Experiments:
[1] = target: T1, Human TGF-βRII-Fc (R&D; cat. no. 341-BR) (human, UniProt P37173 23-159); experiment: ELISA; blocking of TGF-βRII-Fc binding to coated TGF-β1
T1 construct: Bought construct; not shown: Fc part of the bought fusion

E120A = target: T2, E120A; experiment: shotgun mutagenesis alanine scan, mean fluorescence of the mutant clone in % of wildtype
T2 construct: also called human TGF-βRII with E120A (alanine scan clone)
T2 receptor: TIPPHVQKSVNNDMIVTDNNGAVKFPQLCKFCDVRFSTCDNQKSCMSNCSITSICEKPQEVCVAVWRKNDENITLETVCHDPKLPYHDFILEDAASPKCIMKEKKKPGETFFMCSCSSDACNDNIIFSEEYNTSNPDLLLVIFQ

I54A = target: T3, I54A; experiment: as above
T3 construct: also called human TGF-βRII with I54A (alanine scan clone)
T3 receptor: T2 receptor with I54A, A120E

L28A = target: T4, L28A; experiment: as above
T4 construct: L28 is named only on the sheet; also called human TGF-βRII with L28A (alanine scan clone)
T4 receptor: T2 receptor with L28A, A120E

T52A = target: T5, T52A; experiment: as above
T5 construct: also called human TGF-βRII with T52A (alanine scan clone)
T5 receptor: T2 receptor with T52A, A120E

F25A = target: T6, F25A; experiment: as above
T6 construct: also called human TGF-βRII with F25A (alanine scan clone)
T6 receptor: T2 receptor with F25A, A120E

D119A = target: T7, D119A; experiment: as above
T7 construct: also called human TGF-βRII with D119A (alanine scan clone)
T7 receptor: T2 receptor with D119A, A120E

[2] = target: T1, Human TGF-βRII-Fc (R&D; cat. no. 341-BR); experiment: ligand blocking ELISA: TGF-βRII-Fc on coated TGF-β1, antibody titrated (OD450)

- IC50 [1]: 0.155 µg/mL
B1: antibody comprising heavy chain variable regions having SEQ ID NO: 93 (antibody, V domains shown)
VH: EVQLVESGGDLVKPGGSLRLSCAASGFTFSNAWMSWVRQAPGKGLEWVGRVKTTVSGGTTDYAAAVKGRFTISRDDSKNTLYLQMNSLKTEDTAIYYCTIDLRDYWGQGTLVTVSS
VL: not shown
notes: From the second round of immunization; tested as bivalent IgG
- Binding Reactivity (% WT) (E120A): 91.5 % WT
- Binding Reactivity (% WT) (I54A): 24 % WT
- Binding Reactivity (% WT) (L28A): 22.8 % WT
- Binding Reactivity (% WT) (T52A): 23.4 % WT
- Binding Reactivity (% WT) (F25A): 2.28 % WT
- Binding Reactivity (% WT) (D119A): 2.8 % WT

- IC50 (read off the curve) [2]: ~0.03 µg/mL
B2: antibody comprising heavy chain variable regions having SEQ ID NO: 94 (antibody, V domains shown)
VH: EVQLVESGGGLVQPGGSLRLSCAASGFTFSRYAMSWVRQAPGKGLEWVSSINTSGGNTFYADSVKGRFTISRDNSKNTLYLQMNSLRAEDTAIYYCAKGIAATGKNYFDPWGQGTLVTVSS
VL: not shown
notes: IgG expressed in 293T freestyle cells
